Results from patent US20200166512A1 (CENTRE NATIONAL DE LA RECHERCHE SCIENTIFIQUE, published 2020).
Where no end group is shown, it is not given here.

T1: antigenic peptide REEHIEGGHSNTDRPSR (human immunogenic peptide, residues 365-381 of IL4I1) coupled to BSA (human, also: coupled through Ahx spacer and Cys to BSA carrier, end not given here)
T1 peptide: REEHIEGGHSNTDRPSR

B1: anti-IL4I1 antibody A-3 IgG/λ (rabbit monoclonal, clone A-3) (antibody, V domains shown)
VH: QSLEESGGDLVKPEGSLTLTCTASGFSLSAGYFMCWVRQAPGKGLEWIGSIFSGSSGSTYYASWAKGRFTISKTSSTTVTLQMTSLTAADTAIYFCARGGVVDGRVAYDNSFDHWGPGTLVTVSS
VL: ELVLTQSPSVSAALGASAKLTCTLSSAHSTYTIDWYQQQPGESPRYLMQLKSDGTYTKGTGVPDRFSGSSSGADRYLIIPSVQADDEAGYYCGANYSGGYVFGGGTQLTVTR
notes: Rabbit IgG/lambda from a hybridoma; It was used as hybridoma supernatant (clone A) or as purified IgG (subclone A-3); also called IgG A-3; AbA-3
B2: anti-IL4I1 antibody D-5 IgG/λ (rabbit monoclonal, clone D-5, hybridoma CNCM I-5355) (antibody, V domains shown)
VH: QQQLVESGGDLVKPEGSLTLTCTASGFSLSAGYFICWIRQAPGKGLEWIGSVFSGSSGTTYYASWAKGRFTISKTSSTTVTLQMTSLTAADTAIYFCARGGVLGGRVAYDNSFDHWGPGTLVTVSS
VL: ELVLTQSPSVSAALGASAKLTCTLSSAHSTYTIEWYQQQPGESPRYLMQLKSDGSYTKGTGVPDRFSGSSSGADRYLIIFSVQADDEADYYCGANYSSGYVFGGGTQLTVT
notes: Rabbit IgG/lambda from a hybridoma; It was used as hybridoma supernatant (clone D) or as purified IgG (subclone D-5); also called IgG D-5; AbD-5

Target: T1, antigenic peptide REEHIEGGHSNTDRPSR …
Assay: ELISA screen against the antigenic peptide coupled to BSA

Binder	binding result
B1	binds
B2	binds
